In US8580258 (DEUTSCHES KREBSFORSCHUNGSZENTRUM STIFTUNG DES OFFENTLICHEN …, dated 2013):
Residue numbers refer to the chain shown, from its start.

Columns and labels:
streptavidin = streptavidin (UniProt P22629 37-163, limits assumed); test: ELISA, plate coated with streptavidin at 5 µg/ml, bacterial supernatants of 8 clones, anti-human kappa HRP conjugate, TMB
Protocol: Three rows of a 96 well plate were coated with 100 μl L1 antigen comprising the extracellolar domain of the L1 protein fused to an Fc fragment (5 μg/ml) in PBS for 1 hr at room temperature. A further three rows were coated with streptavidin (5 μg/ml) in PBS as a control.
The 96 well plate was washed four times with PBS 0.1% tween followed by the addition of 100 μl of anti-human kappa light chains bound and free antibody HRP conjugate (Sigma A7164) 1:5000 dilution in PBS 1% BSA. The conjugate was incubated for 1 hr at room temperature followed by five washes with PBS 0.1% tween.
The ELISA was developed by the addition of TMB 2-Component Microwell Peroxidase Substrate Kit (Kirkegaard and Perry Laboratories Inc., USA) according to the manufacturer's protocol. At least four L1 binding clones have been observed for each of three single chain antibody versions.

[1] = biological target: T1, recombinant L1-Fc fusion protein (human L1-Fc protein comprising the ectodomain of L1) (human, UniProt P32004 20-1120); test: Biacore SPR, L1-Fc coupled to CM5 chip, antibody as analyte 6-3333 nM
T1 construct: extracellular domain; also called L-Fc; L1 antigen; not shown: Fc fragment

[2] = biological target: T1, recombinant L1-Fc fusion protein (human …); test: Biacore SPR, L1-Fc on CM5 chip

T1 sequence (P32004 20-1120): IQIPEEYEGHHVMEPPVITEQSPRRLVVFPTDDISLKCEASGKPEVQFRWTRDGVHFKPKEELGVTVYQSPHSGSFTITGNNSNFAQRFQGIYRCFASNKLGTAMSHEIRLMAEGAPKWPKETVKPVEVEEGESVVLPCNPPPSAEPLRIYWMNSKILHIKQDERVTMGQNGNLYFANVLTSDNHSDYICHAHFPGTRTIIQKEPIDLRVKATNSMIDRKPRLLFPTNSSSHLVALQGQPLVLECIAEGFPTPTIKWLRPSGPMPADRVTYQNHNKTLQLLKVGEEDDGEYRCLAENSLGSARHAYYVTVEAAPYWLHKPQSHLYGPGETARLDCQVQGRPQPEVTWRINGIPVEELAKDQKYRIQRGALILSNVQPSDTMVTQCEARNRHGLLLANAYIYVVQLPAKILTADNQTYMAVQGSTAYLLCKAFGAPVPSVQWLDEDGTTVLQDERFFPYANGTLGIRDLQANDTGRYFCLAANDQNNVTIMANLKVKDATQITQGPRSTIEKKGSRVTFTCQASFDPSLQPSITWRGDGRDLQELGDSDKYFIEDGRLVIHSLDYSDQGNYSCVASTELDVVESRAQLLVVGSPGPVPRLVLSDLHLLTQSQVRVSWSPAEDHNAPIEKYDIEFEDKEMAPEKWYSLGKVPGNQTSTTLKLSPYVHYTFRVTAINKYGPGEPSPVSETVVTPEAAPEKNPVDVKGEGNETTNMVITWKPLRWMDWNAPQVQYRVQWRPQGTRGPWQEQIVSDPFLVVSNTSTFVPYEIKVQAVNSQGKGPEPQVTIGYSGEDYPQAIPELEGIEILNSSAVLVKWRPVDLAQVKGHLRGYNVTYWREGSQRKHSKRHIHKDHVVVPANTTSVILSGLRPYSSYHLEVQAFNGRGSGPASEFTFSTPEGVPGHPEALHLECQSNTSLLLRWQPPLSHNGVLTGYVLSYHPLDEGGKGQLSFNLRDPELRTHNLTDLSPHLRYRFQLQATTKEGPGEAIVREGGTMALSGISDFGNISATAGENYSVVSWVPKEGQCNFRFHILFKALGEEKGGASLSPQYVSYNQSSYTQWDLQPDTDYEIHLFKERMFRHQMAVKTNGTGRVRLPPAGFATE
Sequence of streptavidin (P22629 37-163 limits assumed): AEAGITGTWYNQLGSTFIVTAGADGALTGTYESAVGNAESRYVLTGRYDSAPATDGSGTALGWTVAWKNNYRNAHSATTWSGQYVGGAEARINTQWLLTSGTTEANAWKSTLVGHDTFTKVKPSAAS

B1: L1-9.3 single chain antibody (murine L1-9.3 scFv fused to human c kappa constant region) (scFv)
scFv: DIQMTQTTSSLSAFLGDRVTISCRASQDISNYLNWYQQKPDGTVKLLIYYTSRLHSGVPSRFSGSGSGTDYSLTISNLEQEDFATYFCQQGNTLPWTFGGGTKLEIKRTSGPGDGGKGGPGKGPGGEGTKGTGPGGQVQLQQPGAELVKSGASVNLSCRASGYTFTRYWMLWVRQRPGHGLEWVGEINPRNDRTNYNEKFKTKATLTVDRSSSTAYMQLTSLTSEDSAVYFCALGGGYAMDYWGQGTSVTVSSGGAAAAPSVFIFPPSDEQLKSGTASVVCLLNNFYPREAKVQWKVDNALQSGNSQESVTEQDSKDSTYSLSSTLTLSKADYEKHKVYACEVTHQGLSSPVTKSFNRGESHHHHHH
notes: The expressed portion may include the pelB leader, which is cleaved off
binding result (streptavidin): no binding

B2: L1-9.3Hu single chain antibody (humanized L1-9.3Hu scFv fused to human c kappa constant region) (scFv)
scFv: DIQMTQSPSSLSASVGDRVTITCRASQDISNYLNWYQQKPGKAPKLLIYYTSRLHSGVPSRFSGSGSGTDYTFTISSLQPEDFATYFCQQGNTLPWTFGGGTKLEIKRTSGPGDGGKGGPGKGPGGEGTKGTGPGGEVQLVQSGGGLVQSGGSLRLSCRASGYTFTRYWMLWVRQRPGHGLEWVGEINPRNDRTNYNEKFKTRFTISVDRSKSTAYLQMDSLRAEDTAVYFCALGGGYAMDYWGQGTLVTVSSGGAAAAPSVFIFPPSDEQLKSGTASVVCLLNNFYPREAKVQWKVDNALQSGNSQESVTEQDSKDSTYSLSSTLTLSKADYEKHKVYACEVTHQGLSSPVTKSFNRGESHHHHHH
notes: The expressed portion may include the pelB leader
binding result (streptavidin): no binding

B3: L1-9.3Hu3 single chain antibody (humanized L1-9.3Hu3 scFv fused to human c kappa constant region) (scFv)
scFv: B2 scFv with F73L, H179K, G185A, S213N, A215L
notes: The expressed portion may include the pelB leader; also called L1-9Hu3
binding result (streptavidin): no binding

B4: humanised antibody L1-hu3 (antibody, V domains shown)
VH: EVQLVQSGGGLVQSGGSLRLSCRASGYTFTRYWMLWVRQRPGKGLEWVAEINPRNDRTNYNEKFKTRFTISVDRSKNTLYLQMDSLRAEDTAVYFCALGGGYAMDYWGQGTLVTVSS
VL: DIQMTQSPSSLSASVGDRVTITCRASQDISNYLNWYQQKPGKAPKLLIYYTSRLHSGVPSRFSGSGSGTDYTLTISSLQPEDFATYFCQQGNTLPWTFGGGTKLEIK
Kd [1]: 81 pM | koff [1]: 6.5e-05 s⁻¹ | kon [1]: 800000 M⁻¹ s⁻¹

B5: monoclonal antibody L1-9.3, produced by the hybridoma cell deposited under DSMZ ACC2841 (antibody, V domains shown)
VH: QVQLQQPGAELVKSGASVNLSCRASGYTFTRYWMLWVRQRPGHGLEWVGEINPRNDRTNYNEKFKTKATLTVDRSSSTAYMQLTSLTSEDSAVYFCALGGGYAMDYWGQGTSVTVSS
VL: DIQMTQTTSSLSAFLGDRVTISCRASQDISNYLNWYQQKPDGTVKLLIYYTSRLHSGVPSRFSGSGSGTDYSLTISNLEQEDFATYFCQQGNTLPWTFGGGTKLEIK
Kd [2]: 85 pM | koff [2]: 2.2e-05 s⁻¹ | kon [2]: 260000 M⁻¹ s⁻¹ | Kd [1]: 85 pM | koff [1]: 2.2e-05 s⁻¹ | kon [1]: 260000 M⁻¹ s⁻¹
